Source: the supplement of paper PMC10065799, “High-throughput profiling of sequence recognition by tyrosine kinases and SH2 domains using bacterial peptide display” (eLife, 2023)

Key:
Grb2 SH2 = Grb2 SH2 (UniProt P62993); assay: SH2 binding enrichment of the phosphorylated peptide, bacterial display (enrichment ratio); higher = better substrate or ligand; peptides without Tyr show the background
c-Src SH2 = assay: as above
SHP2-C SH2 = assay: as above
Fyn = Fyn (UniProt P06241); assay: phosphorylation enrichment, bacterial display (enrichment ratio); higher = better substrate or ligand; peptides without Tyr show the background
Sequence of Fyn (P06241 whole entry, looked up): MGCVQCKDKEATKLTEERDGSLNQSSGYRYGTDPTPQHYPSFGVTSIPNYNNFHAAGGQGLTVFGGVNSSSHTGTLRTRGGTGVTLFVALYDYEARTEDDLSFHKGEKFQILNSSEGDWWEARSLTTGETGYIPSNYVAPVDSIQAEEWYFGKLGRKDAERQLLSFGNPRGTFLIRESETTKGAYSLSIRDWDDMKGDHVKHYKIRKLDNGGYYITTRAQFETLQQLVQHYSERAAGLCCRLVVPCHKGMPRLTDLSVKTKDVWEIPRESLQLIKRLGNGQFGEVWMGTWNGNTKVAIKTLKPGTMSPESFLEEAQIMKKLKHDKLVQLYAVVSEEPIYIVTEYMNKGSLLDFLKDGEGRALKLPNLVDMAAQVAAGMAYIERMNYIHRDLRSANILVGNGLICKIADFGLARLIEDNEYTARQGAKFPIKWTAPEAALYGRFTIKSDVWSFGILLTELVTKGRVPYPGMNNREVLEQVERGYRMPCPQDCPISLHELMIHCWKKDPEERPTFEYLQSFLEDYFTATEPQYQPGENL

c-Abl (mouse) = assay: as above
Fer (mouse) = assay: as above
EPHB1 = EPHB1 (UniProt P54762); assay: as above
AncSZ = assay: as above
FGFR3 = FGFR3 (UniProt P22607); assay: as above
c-Src = assay: as above
Hck = Hck (UniProt P08631); assay: as above
Sequence of Hck (P08631 whole entry, looked up): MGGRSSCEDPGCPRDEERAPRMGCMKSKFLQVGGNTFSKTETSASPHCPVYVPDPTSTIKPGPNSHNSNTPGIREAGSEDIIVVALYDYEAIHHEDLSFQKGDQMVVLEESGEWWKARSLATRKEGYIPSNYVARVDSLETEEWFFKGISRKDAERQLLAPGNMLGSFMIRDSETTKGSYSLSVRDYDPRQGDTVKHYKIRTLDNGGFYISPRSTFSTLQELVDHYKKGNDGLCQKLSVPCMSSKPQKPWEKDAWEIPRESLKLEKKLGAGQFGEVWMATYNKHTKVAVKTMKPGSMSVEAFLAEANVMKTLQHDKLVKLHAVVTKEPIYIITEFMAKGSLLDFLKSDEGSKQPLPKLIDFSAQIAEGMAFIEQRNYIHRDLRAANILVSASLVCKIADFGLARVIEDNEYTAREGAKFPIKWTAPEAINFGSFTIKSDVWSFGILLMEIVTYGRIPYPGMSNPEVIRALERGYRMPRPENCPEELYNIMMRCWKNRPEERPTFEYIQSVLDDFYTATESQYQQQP

EPHB2 = EPHB2 (UniProt P29323); assay: as above
MERTK = MERTK (UniProt Q12866); assay: as above
Sequence of MERTK (Q12866 whole entry, looked up): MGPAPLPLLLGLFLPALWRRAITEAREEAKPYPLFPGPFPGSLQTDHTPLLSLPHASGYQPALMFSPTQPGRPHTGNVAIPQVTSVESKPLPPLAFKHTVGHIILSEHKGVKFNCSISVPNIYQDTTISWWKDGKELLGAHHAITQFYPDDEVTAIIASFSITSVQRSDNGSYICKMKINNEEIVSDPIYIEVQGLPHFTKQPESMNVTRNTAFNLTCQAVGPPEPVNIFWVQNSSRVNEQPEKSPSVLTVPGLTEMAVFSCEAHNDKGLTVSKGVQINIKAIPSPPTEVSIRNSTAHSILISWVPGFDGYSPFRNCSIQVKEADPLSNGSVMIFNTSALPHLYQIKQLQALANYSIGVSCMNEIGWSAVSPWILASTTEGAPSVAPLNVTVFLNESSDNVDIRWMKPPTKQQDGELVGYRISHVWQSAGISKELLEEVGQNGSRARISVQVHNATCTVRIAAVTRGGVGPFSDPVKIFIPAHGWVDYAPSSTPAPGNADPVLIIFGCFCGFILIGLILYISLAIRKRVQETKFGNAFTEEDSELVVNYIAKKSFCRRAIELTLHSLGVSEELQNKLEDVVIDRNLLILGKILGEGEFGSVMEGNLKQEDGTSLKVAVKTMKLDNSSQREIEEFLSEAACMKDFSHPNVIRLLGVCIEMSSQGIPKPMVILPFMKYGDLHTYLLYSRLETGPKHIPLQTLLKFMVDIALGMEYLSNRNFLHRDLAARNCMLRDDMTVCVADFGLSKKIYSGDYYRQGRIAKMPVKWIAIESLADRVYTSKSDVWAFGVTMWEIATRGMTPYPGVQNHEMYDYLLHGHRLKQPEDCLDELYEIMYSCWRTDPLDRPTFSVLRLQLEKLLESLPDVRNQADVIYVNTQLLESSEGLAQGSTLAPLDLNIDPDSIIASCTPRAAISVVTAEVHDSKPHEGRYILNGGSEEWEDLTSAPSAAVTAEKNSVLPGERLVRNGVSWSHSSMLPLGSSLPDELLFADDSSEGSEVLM

Jak2 = Jak2 (UniProt O60674); assay: as above
Sequence of Jak2 (O60674 whole entry, looked up): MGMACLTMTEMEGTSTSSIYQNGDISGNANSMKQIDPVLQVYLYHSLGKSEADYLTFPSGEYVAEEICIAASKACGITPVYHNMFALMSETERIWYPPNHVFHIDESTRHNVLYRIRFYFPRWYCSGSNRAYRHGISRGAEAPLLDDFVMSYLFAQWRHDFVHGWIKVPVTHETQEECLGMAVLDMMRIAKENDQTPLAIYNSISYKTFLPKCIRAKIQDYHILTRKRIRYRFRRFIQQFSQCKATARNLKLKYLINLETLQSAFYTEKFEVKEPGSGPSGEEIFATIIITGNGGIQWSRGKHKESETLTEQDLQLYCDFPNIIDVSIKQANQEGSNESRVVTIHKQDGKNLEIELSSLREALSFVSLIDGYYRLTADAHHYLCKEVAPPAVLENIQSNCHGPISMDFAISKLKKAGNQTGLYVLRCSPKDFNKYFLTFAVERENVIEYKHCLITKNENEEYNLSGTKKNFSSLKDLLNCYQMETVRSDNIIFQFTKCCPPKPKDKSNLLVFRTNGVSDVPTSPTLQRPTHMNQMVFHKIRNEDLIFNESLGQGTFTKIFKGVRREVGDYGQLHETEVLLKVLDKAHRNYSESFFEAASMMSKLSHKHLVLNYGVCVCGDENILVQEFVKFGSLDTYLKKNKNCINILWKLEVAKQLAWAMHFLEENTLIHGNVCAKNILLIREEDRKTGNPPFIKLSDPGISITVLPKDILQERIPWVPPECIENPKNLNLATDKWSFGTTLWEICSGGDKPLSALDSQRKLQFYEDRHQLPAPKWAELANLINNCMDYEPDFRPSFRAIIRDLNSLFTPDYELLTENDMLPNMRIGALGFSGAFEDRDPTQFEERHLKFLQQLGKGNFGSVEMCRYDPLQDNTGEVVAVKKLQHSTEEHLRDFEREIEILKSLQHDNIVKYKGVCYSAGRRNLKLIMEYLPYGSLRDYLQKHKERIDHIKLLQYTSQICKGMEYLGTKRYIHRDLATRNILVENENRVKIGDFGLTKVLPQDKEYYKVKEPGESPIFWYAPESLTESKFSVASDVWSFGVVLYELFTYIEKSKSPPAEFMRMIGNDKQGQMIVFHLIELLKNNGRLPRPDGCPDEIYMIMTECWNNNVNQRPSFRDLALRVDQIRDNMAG

Fes = Fes (UniProt P07332); assay: as above
Sequence of Fes (P07332 whole entry, looked up): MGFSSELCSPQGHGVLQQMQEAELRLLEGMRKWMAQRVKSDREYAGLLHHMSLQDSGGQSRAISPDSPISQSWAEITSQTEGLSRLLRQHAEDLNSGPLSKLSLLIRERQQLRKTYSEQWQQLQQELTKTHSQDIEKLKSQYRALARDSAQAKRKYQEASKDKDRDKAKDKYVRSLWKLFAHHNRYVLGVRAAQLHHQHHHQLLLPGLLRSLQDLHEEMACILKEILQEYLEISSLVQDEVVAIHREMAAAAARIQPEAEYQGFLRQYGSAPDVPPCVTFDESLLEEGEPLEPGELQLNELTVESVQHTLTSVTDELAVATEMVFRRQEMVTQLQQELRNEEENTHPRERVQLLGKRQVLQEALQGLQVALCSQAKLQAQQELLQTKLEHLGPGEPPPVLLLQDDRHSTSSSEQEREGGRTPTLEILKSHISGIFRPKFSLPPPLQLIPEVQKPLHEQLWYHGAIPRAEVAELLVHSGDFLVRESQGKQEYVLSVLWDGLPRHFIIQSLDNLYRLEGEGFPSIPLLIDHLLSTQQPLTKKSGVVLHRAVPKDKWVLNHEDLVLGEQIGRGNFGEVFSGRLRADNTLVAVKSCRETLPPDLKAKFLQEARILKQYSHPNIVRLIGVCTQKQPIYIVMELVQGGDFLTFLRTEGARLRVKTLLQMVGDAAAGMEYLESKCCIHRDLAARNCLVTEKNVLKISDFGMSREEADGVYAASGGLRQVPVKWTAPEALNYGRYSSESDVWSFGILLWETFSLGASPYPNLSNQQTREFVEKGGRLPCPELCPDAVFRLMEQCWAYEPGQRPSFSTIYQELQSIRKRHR

FGFR1 = FGFR1 (UniProt P11362); assay: as above
Sequence of FGFR1 (P11362 whole entry, looked up, the tested form may be a part): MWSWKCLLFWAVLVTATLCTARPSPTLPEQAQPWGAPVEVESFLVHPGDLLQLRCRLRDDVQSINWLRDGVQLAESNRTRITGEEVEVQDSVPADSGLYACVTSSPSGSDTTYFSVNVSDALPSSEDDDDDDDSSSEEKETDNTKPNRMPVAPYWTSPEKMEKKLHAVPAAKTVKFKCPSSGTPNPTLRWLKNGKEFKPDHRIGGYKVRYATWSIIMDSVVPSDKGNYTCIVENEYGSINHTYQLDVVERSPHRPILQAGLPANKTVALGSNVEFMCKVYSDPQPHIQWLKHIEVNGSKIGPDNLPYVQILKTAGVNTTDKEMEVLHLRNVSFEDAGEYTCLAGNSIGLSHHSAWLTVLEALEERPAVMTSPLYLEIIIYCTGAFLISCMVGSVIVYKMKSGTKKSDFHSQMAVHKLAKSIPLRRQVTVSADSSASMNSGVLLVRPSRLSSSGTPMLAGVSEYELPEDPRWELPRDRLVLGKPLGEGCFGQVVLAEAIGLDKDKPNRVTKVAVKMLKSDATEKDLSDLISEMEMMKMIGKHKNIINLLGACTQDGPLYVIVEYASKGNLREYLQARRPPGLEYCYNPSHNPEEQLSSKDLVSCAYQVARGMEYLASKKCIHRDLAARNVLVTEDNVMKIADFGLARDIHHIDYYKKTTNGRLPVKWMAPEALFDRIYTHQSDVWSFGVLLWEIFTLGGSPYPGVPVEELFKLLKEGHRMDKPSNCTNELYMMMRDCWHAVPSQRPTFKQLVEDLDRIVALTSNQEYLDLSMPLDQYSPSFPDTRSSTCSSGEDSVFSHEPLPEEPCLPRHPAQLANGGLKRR
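Wherever SH2 binding enrichment of the phosphorylated peptide, bacterial display is given: peptide library displayed on the E. coli surface as eCPX fusions, selected cells deep-sequenced, score is each peptide's frequency after selection divided by its frequency in the input.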
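Wherever phosphorylation enrichment, bacterial display is given: 11-residue human phosphosite peptides and single-mutation variants displayed on the E. coli surface, counted by deep sequencing, each peptide's frequency after selection divided by its frequency in the unselected input library; frequency after pTyr selection over input frequency; kinase dosed for 20-30% of maximal phosphorylation in three min.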

Row | SH2 binding enrichment (Grb2 SH2) | SH2 binding enrichment (c-Src SH2) | SH2 binding enrichment (SHP2-C SH2) | Sequence | phosphorylation enrichment (Fyn) | phosphorylation enrichment (c-Abl (mouse)) | phosphorylation enrichment (Fer (mouse)) | phosphorylation enrichment (EPHB1) | phosphorylation enrichment (AncSZ) | phosphorylation enrichment (FGFR3) | phosphorylation enrichment (c-Src) | phosphorylation enrichment (Hck) | phosphorylation enrichment (EPHB2) | phosphorylation enrichment (MERTK) | phosphorylation enrichment (Jak2) | phosphorylation enrichment (Fes) | phosphorylation enrichment (FGFR1)
1 | 0.757 | 0.593 | 0.526 | AALRLYHVSDS [VIL1_Y256_K254R] | 0.579 | 0.798 | 0.531 | 0.617 | 0.738 | 0.763 | 0.451 | 0.485 | 0.508 | 0.478 | 0.734 | 0.959 | 0.641
2 | 0.705 | 0.424 | 0.63 | NIEPIYLNMLL [ATR_Y317_V316I] | 8.37 | 15.1 | 13.3 | 13.8 | 1.85 | 7.79 | 6.6 | 6.92 | 14.5 | 6.85 | 1.42 | 3.2 | 10.7
3 | 1.31 | 0.964 | 2.18 | FNVLQYVVPKV [EIF3A_Y382_E386K] | 0.465 | 9.24 | 0.348 | 1.09 | 0.832 | 1.02 | 0.383 | 0.386 | 0.607 | 1.41 | 2.2 | 0.797 | 1.1
4 | 0.725 | 0.634 | 0.478 | AEQDWYHGAIP [FER_Y461] | 0.846 | 0.646 | 0.559 | 0.481 | 1.06 | 1.54 | 1.19 | 1.22 | 0.546 | 0.443 | 0.802 | 0.921 | 1.72
5 | 0.795 | 0.757 | 1.03 | LDYNEYVRDLN [HPRT1_Y198_F199V] | 0.695 | 0.587 | 0.535 | 0.761 | 1.63 | 1.07 | 0.565 | 0.712 | 0.993 | 0.441 | 1.06 | 1.23 | 0.951
6 | 0.83 | 0.914 | 1.3 | QFKDKYLAKHN [CASK_Y712_YF] | 0.266 | 0.35 | 0.433 | 0.53 | 0.519 | 0.298 | 0.34 | 0.384 | 0.268 | 0.403 | 0.788 | 0.467 | 0.383
7 | 0.809 | 0.602 | 0.757 | FGDTPYIPFRD [CDC14C_Y132] | 0.55 | 0.589 | 0.542 | 0.495 | 0.764 | 0.662 | 0.781 | 0.54 | 0.458 | 0.445 | 0.646 | 0.905 | 0.522
8 | 0.949 | 0.653 | 1.5 | AFSTVYKGLWI [EGFR_Y727_G724S] | 0.433 | 0.814 | 0.677 | 0.578 | 1.01 | 0.67 | 0.455 | 0.445 | 0.498 | 0.395 | 1.1 | 1.1 | 0.504
9 | 0.744 | 0.717 | 2.28 | GIATGYLVLKE [DNMT3B_Y588] | 0.385 | 0.533 | 0.376 | 0.511 | 0.737 | 0.611 | 0.4 | 0.511 | 0.558 | 0.357 | 0.836 | 0.77 | 0.464
10 | 0.741 | 0.533 | 0.738 | NVKGIYAVGDV [GSR_Y371] | 4.37 | 1.44 | 0.572 | 0.619 | 0.714 | 0.574 | 3.73 | 3.55 | 0.564 | 1.31 | 0.66 | 0.865 | 0.521
11 | 0.92 | 0.516 | 1.05 | EFDRLYEEFTR [PIK3R1_Y467_YF] | 7.47 | 0.841 | 6.18 | 3.46 | 1.59 | 0.807 | 5.36 | 6.11 | 2.77 | 3.04 | 1.01 | 1.15 | 0.65
12 | 1 | 0.759 | 0.62 | SLIERYEPSET [PLCD1_Y258] | 0.502 | 0.717 | 0.574 | 0.742 | 1.07 | 0.678 | 0.497 | 0.54 | 0.602 | 0.727 | 0.966 | 1.1 | 0.661
13 | 0.618 | 0.54 | 0.566 | RLLCEYQELMN [KRT75_Y434_R432C] | 0.83 | 0.804 | 0.839 | 1.34 | 1.5 | 1.6 | 0.647 | 0.761 | 1.09 | 0.369 | 1.33 | 1.78 | 0.961
14 | 20.1 | 4 | 2.63 | HLGNQYVNVMN [SLC3A1_Y461_R456H] | 0.483 | 0.764 | 0.603 | 0.565 | 0.905 | 0.643 | 0.471 | 0.85 | 0.477 | 0.29 | 0.618 | 0.902 | 0.735
15 | 0.765 | 0.775 | 0.791 | EAEPYYRSLRD [NPHS1_Y1139] | 0.479 | 0.709 | 0.428 | 0.487 | 0.929 | 0.585 | 0.601 | 0.521 | 0.594 | 0.467 | 0.785 | 0.911 | 0.505
16 | 0.872 | 0.532 | 0.445 | EGDGVYTLNDE [HP_Y125_N129D] | 4.51 | 0.8 | 0.555 | 0.643 | 1.18 | 0.838 | 3.79 | 1.81 | 0.727 | 0.482 | 1.21 | 1.23 | 0.453
17 | 0.714 | 0.56 | 0.744 | EVKRLYGSVCD [TC2N_Y154] | 0.695 | 0.849 | 0.543 | 0.529 | 0.866 | 0.703 | 0.656 | 0.61 | 0.585 | 0.515 | 1.06 | 1.16 | 0.475
18 | 0.776 | 0.416 | 0.505 | TPGPNYRPGFN [USH2A_Y463_YF] | 0.536 | 0.576 | 0.498 | 0.531 | 0.707 | 0.646 | 0.452 | 0.586 | 0.436 | 0.87 | 0.675 | 0.716 | 0.647
19 | 0.75 | 0.441 | 0.478 | QEIATYRRLRE [KRT17_Y384_L388R] | 0.61 | 0.597 | 0.508 | 0.64 | 0.734 | 0.933 | 0.537 | 0.779 | 0.557 | 0.798 | 0.558 | 0.936 | 0.77
20 | 0.966 | 0.492 | 0.561 | DGTGHYLGNAC [GATA5_Y208_C210G] | 0.347 | 0.554 | 0.4 | 0.471 | 0.624 | 0.474 | 0.311 | 0.399 | 0.456 | 0.357 | 0.548 | 0.727 | 0.421
21 | 0.636 | 7.16 | 0.616 | ELSDGYWVVSN [TPP1_Y459_A454E] | 0.507 | 0.778 | 0.528 | 0.559 | 1.39 | 1.21 | 0.588 | 0.647 | 0.664 | 0.396 | 1.63 | 1.34 | 1.3
22 | 0.822 | 0.467 | 0.492 | ERIEFYELNKK [PMM2_Y145_D148N] | 0.497 | 0.486 | 0.619 | 0.542 | 0.968 | 0.541 | 0.507 | 0.486 | 0.71 | 0.506 | 0.731 | 0.844 | 0.489
23 | 0.821 | 0.46 | 0.617 | ANQDDYISFRH [IMP4_Y226] | 0.899 | 0.557 | 0.357 | 0.507 | 1.17 | 0.967 | 1.11 | 1.19 | 0.469 | 0.482 | 0.901 | 0.841 | 1.07
24 | 0.75 | 2.01 | 0.749 | IVAREYYSKAD [CAMK2B_Y107_E110K] | 0.423 | 0.639 | 0.405 | 0.467 | 0.768 | 0.504 | 0.525 | 0.507 | 0.602 | 0.425 | 0.697 | 0.85 | 0.43
25 | 0.734 | 0.318 | 0.422 | RELSWYRGRRP [HESX1_Y106] | 0.781 | 0.787 | 0.693 | 0.484 | 1.02 | 0.563 | 0.727 | 0.809 | 0.683 | 0.833 | 0.895 | 0.794 | 0.53
26 | 0.795 | 0.483 | 0.455 | QAEELYFGKMG [YES1_Y159_W158L] | 3.61 | 2.25 | 0.747 | 0.861 | 2.15 | 1.55 | 3.55 | 5.82 | 0.837 | 1.87 | 1.14 | 1.55 | 1.49
27 | 1.34 | 2.26 | 1.06 | VYYDLYGGEKF [PTPN11_Y66_D61V] | 5.88 | 0.918 | 2.99 | 4.34 | 2.05 | 12.8 | 5.53 | 6.07 | 7.34 | 8.55 | 2.2 | 1.13 | 15
28 | 0.726 | 1.48 | 0.75 | YEEDSYVERSQ [RET_Y905_K907E] | 0.519 | 0.668 | 0.572 | 0.667 | 1.27 | 0.961 | 0.41 | 0.498 | 0.722 | 0.504 | 1.06 | 1.31 | 0.558

Row | Sequence | SH2 binding enrichment (Grb2 SH2) | SH2 binding enrichment (c-Src SH2) | SH2 binding enrichment (SHP2-C SH2) | phosphorylation enrichment (Fyn) | phosphorylation enrichment (c-Abl (mouse)) | phosphorylation enrichment (Fer (mouse)) | phosphorylation enrichment (EPHB1) | phosphorylation enrichment (AncSZ) | phosphorylation enrichment (FGFR3) | phosphorylation enrichment (c-Src) | phosphorylation enrichment (Hck) | phosphorylation enrichment (EPHB2) | phosphorylation enrichment (MERTK) | phosphorylation enrichment (Jak2) | phosphorylation enrichment (Fes) | phosphorylation enrichment (FGFR1)
29 | SIKDKYVTALF [KCNH2_Y611_YF] | 0.8 | 0.433 | 0.693 | 0.465 | 0.668 | 0.441 | 0.449 | 0.684 | 0.488 | 0.502 | 0.498 | 0.5 | 0.471 | 0.742 | 0.846 | 0.525
